From US20240374748A1 (University of California, published 2024)

T1: ALPL (UniProt P05186 18-501, limits assumed)
T1 construct: whole, on cells; Expressed on ALPL-transfected HEK293 cells; also called tissue-nonspecific, liver/bone/kidney alkaline phosphatase
T1 sequence (looked up): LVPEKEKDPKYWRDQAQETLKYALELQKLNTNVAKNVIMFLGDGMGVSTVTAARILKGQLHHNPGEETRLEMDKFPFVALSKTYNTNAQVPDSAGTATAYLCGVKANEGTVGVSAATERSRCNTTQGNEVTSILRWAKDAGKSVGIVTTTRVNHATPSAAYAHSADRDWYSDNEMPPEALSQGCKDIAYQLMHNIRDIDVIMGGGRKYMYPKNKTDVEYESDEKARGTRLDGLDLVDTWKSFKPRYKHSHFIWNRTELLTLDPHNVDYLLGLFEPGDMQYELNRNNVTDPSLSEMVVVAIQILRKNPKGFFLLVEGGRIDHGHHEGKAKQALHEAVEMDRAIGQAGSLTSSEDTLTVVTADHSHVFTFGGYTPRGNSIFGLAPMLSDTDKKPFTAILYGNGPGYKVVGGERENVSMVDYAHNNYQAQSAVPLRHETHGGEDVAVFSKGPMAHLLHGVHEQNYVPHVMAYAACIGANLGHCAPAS

T2: ALPI (UniProt P09923 20-503, limits assumed)
T2 construct: whole, on cells; Expressed on ALPI-transfected HEK293 cells; also called intestinal alkaline phosphatase
T2 sequence (looked up): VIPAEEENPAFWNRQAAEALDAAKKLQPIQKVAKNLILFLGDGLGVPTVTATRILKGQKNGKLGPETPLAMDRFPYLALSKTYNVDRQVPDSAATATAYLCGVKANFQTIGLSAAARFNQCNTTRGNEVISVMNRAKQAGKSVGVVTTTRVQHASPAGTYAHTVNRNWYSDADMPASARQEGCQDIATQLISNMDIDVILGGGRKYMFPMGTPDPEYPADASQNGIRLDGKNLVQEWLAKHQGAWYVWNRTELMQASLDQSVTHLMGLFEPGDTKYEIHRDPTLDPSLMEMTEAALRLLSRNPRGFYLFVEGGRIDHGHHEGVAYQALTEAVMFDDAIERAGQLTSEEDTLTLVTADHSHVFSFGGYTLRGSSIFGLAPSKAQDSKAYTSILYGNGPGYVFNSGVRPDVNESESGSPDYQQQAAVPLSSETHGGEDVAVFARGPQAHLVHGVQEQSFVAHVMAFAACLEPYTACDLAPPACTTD


Experiments:
[1] = molecular target: T3, ALPP (human, UniProt P05187 23-506); assay: FACS on live ALPP-transfected HEK293 cells
T3 construct: Expressed on transfected HEK293 cells; also called placentally expressed ALPP
T3 sequence (P05187 23-506 limits assumed): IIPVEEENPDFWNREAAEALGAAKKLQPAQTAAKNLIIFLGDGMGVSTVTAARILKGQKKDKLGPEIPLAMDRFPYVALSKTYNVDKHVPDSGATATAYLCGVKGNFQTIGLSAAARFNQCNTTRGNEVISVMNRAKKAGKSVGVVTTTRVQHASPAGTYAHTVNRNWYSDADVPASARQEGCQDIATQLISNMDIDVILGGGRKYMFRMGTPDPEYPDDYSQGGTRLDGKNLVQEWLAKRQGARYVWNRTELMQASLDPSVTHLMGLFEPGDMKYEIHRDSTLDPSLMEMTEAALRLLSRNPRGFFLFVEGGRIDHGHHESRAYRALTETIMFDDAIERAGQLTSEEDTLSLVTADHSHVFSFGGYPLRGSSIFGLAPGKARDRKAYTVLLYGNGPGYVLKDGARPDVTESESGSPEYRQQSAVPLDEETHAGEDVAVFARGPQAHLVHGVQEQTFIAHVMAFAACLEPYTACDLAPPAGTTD

[2] = molecular target: T4, ALPPL2 (human, UniProt P10696 20-503); assay: FACS on live HEK293 cells transfected with ALPPL2 (GFP+ gated), curve fit of normalized MFI; ALPPL2-transfected HEK293 cells
T4 construct: Expressed from an ALPPL2 plasmid or cDNA on HEK293 cells, and endogenous on tumor cells; also called placentally expressed ALPPL2; membrane ALPPL2
T4 sequence (P10696 20-503 limits assumed): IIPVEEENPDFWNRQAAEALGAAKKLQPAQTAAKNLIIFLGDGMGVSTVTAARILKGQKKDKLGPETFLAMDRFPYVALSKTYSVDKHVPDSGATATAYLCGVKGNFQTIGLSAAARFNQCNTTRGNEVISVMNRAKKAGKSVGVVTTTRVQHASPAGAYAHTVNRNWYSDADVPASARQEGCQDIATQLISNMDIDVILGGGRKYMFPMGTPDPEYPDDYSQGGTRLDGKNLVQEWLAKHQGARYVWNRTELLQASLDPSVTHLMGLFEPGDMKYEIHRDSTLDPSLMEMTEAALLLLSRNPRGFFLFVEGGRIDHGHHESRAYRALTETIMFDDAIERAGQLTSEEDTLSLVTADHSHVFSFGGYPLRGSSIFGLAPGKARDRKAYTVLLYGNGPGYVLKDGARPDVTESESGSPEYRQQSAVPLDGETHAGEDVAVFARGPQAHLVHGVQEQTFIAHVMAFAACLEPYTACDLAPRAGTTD
Protocol: (§1) Cells were incubated with antibody at room temperature for 1h in PBS/0.2% fetal calf serum, washed three times and further incubated with ALEXAFLOU®-647-labeled anti-human secondary antibody. GFP+ cells were gated and analyzed for mean fluorescence intensity (MFI). […] Similar binding results were obtained on ALPP-transfected cells. There is no binding to ALPL-transfected cells.

[3] = molecular target: T1, ALPL; assay: FACS on live transfected HEK293 cells, IgG1
[4] = molecular target: T4, ALPPL2; assay: FACS on live HEK293 cells transfected with ALPPL2 (GFP+ gated), curve fit of normalized MFI
Protocol: as §1, with “either ALPL or ALPI-transfected” for “ALPL-transfected”

[5] = molecular target: T2, ALPI; assay: FACS on live transfected HEK293 cells, IgG1
[6] = molecular target: T4, ALPPL2; assay: apparent affinity on tumor cells, IgG1; method and cell line not stated; tumor cells, IgG1 form

| Binder | binding result [1] | Kd [2] [nM] | binding result [3] | Kd [4] [nM] | binding result [5] | Kd [6] [nM] |
| --- | --- | --- | --- | --- | --- | --- |
| M25FYIA IgG1 (antibody, V domains shown, Tested as human IgG1) VH: QVQLQQSGGGLVKPGGSLRLSCAASGFTFSSYAMHWVRQAPGKGLEWVAVISYDGSNKYYADSVKGRFTISRDNSKNTLYLQMDSLRAEDTAVYYCAKEGDSSRWSYDLWGRGTLVTVSS VL: QSALTQPASVSGSPGQSITISCTGTSSDVGGYNYVSWYQQHPGKAPKVMIYDVTNRPSGVSNRFSGSKSGNTASLTISGLQAEDEADYYCSSYTIASTLVVFGGGTKLTVL | binds | 0.0204 | no binding |  |  |  |
| M25AD IgG1 (antibody, V domains shown, Tested in its IgG1 form; also called a variant of M25) VH: QVQLQQSGGGLVKPGGSLRLSCAASGFTFSSYDMHWVRQAPGKGLEWVAVISYDGSNKYYADSVKGRFTISRDNSKNTLYLQMDSLRAEDTAVYFCAKEGDSSRWSYDLWGRGTLVTVSS VL: QSALTQPASVSGSPGQSITISCTGTSSDVGGYNYVSWYQQHPGKAPKVMIYDVTNRPSGVSNRFSGSKSGNTASLTISGLQAEDEADYYCSSYTSTSTLVVFGGGTKLTVL |  |  |  |  |  | 0.028 |

The next lines start with the values.

| binding result [1] | Kd [2] [nM] | binding result [3] | Kd [4] [nM] | binding result [5] | Kd [6] [nM] | Binder |
| --- | --- | --- | --- | --- | --- | --- |
| binds | 0.017 | no binding |  |  |  | M25ADLF IgG1 (antibody, V domains shown, Tested as human IgG1; Residue limits are from CLM-00120) VH: QVQLQQSGGGLVKPGGSLRLSCAASGFTFSSYDMHWVRQAPGKGLEWVAVISYDGSNKYYADSVKGRFTISRDNSKNTLYLQMDSLRAEDTAVYFCAKEGDSSRWSYDLWGRGTLVTVSS VL: QSALTQPASVSGSPGQSITISCTGTSSDVGGYNYVSWYQQHPGKAPKVMIYDVTNRPSGVSNRFSGSKSGNTASLTISGLQAEDEADYYCSSYTSTSTFVVFGGGTKLTVLG |
| binds |  | no binding | 0.506 | no binding |  | M25 IgG1 (antibody, V domains shown, also called our M25 antibody; our anti-ALPPL2 antibody M25) VH: QVQLQQSGGGLVKPGGSLRLSCAASGFTFSSYAMHWVRQAPGKGLEWVAVISYDGSNKYYADSVKGRFTISRDNSKNTLYLQMDSLRAEDTAVYFCAKEGDSSRWSYDLWGRGTLVTVSS VL: QSALTQPASVSGSPGQSITISCTGTSSDVGGYNYVSWYQQHPGKAPKVMIYDVTNRPSGVSNRFSGSKSGNTASLTISGLQAEDEADYYCSSYTSTSTLVVFGGGTKLTVL |
